From paper PMC10611921, “Assessing the dynamics and macromolecular interactions of the intrinsically disordered protein YY1” (Bioscience Reports, 2023)

Legend:
[1] = biological target: YY1 labelled with NTA ATTO 550 (UniProt P25490 1-414); test: fluorescence anisotropy; apparent KD; 0.2 uM labelled YY1, DNA titrated; 100 mM NaCl; Anisotropy: 10 mM HEPES pH 7.5, 100 mM NaCl, 20 C; EMSA: 0.5 uM DNA, 20% (v/v) of binding buffer (10 mM HEPES pH 7.5, 1 mM MgCl2, 100 mM KCl, 10% glycerol, 0.1); conditions: protein: recombinant; tags: N-terminal His6 (NTA ATTO 550 label)
FOXP2 FHD [2] = biological target: T1, FOXP2 FHD (UniProt O15409 504-594); test: EMSA; control gel; no specific binding; Anisotropy: 10 mM HEPES pH 7.5, 100 mM NaCl, 20 C; EMSA: 0.5 uM DNA, 20% (v/v) of binding buffer (10 mM HEPES pH 7.5, 1 mM MgCl2, 100 mM KCl, 10% glycerol, 0.1); conditions: protein: recombinant; tags: His6 removed with thrombin
T1 sequence: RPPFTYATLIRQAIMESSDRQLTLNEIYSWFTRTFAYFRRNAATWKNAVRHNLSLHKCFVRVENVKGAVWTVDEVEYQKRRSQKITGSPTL

FOXP2 FHD [3] = biological target: T1, FOXP2 FHD; test: EMSA; single complex, no YY1; Anisotropy: 10 mM HEPES pH 7.5, 100 mM NaCl, 20 C; EMSA: 0.5 uM DNA, 20% (v/v) of binding buffer (10 mM HEPES pH 7.5, 1 mM MgCl2, 100 mM KCl, 10% glycerol, 0.1); conditions: protein: recombinant; tags: His6 removed with thrombin
[4] = biological target: T2, Yin Yang 1 (YY1), full-length, N-terminal hexahistidine tag (UniProt P25490 1-414, NTA ATTO 550 on the N-terminal hexahistidine tag (the labelled copy in the anisotropy assays)); test: fluorescence polarisation; fluorescence anisotropy; unlabelled FOXP2 FHD titrated into 0.2 μM YY1 labelled with NTA ATTO 550; 500 mM NaCl, 10 mM HEPES pH 7.5, 20°C; single site model, apparent KD; conditions: both partners purified
T2 construct: YY1 (Yin Yang 1), full-length construct; A heterogeneous mixture of oligomers in solution; In the anisotropy assays 0.2 μM YY1 carried NTA ATTO 550 on the His tag; the titrated YY1 was unlabelled; also called Ying Yang 1; source: T7 cells (Genscript), pET-11A plasmid, purified (IMAC on cobalt, size exclusion chromatography); not shown: His6, N-terminal, kept

[5] = biological target: T2, Yin Yang 1 (YY1), full-length, …; test: fluorescence polarisation; fluorescence anisotropy; unlabelled FOXP2 FHD titrated into 0.2 μM YY1 labelled with NTA ATTO 550; 100 mM NaCl, 10 mM HEPES pH 7.5, 20°C; single site model, apparent KD; conditions: both partners purified
[6] = biological target: T2, Yin Yang 1 (YY1), full-length, …; test: fluorescence polarisation; fluorescence anisotropy; unlabelled FOXP2 FHD titrated into 0.2 μM YY1 labelled with NTA ATTO 550 in the presence of 10 μM background AAV P5 promoter DNA (YY1 specific); 100 mM NaCl, 10 mM HEPES pH 7.5, 20°C; conditions: both partners purified
[7] = biological target: T2, Yin Yang 1 (YY1), full-length, …; test: fluorescence polarisation; fluorescence anisotropy; unlabelled FOXP2 FHD titrated into 0.2 μM YY1 labelled with NTA ATTO 550; 300 mM NaCl, 10 mM HEPES pH 7.5, 20°C; single site model, apparent KD; conditions: both partners purified

T2 sequence (P25490 whole entry): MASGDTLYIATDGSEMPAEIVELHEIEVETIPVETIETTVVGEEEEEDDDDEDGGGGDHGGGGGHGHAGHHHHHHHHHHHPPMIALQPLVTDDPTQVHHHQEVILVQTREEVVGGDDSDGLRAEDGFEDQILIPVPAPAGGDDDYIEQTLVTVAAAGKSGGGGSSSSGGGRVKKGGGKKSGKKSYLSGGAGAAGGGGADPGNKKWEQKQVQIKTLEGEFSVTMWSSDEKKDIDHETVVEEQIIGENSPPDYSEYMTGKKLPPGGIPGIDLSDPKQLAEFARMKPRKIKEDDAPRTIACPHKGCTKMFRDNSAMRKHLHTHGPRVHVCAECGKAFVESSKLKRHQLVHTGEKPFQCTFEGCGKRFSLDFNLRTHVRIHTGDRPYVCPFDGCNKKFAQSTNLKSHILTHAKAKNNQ
Chain of YY1 labelled with NTA ATTO 550 (P25490 whole entry): as above

B1: AAV P5 DNA (dsDNA)
DNA 1: AGGGTCTCCATTTTGAAGCG
DNA 2: CGCTTCAAAATGGAGACCCT
Q: For B1, which Kd [1] is on record?
A: 3.7 ± 0.4 µM

Q: Does B1 bind (FOXP2 FHD [2])?
A: no binding

B2: CNTNAP2 DNA (dsDNA)
DNA 1: TTTGATTGTTTACTTTGTTC
DNA 2: GAACAAAGTAAACAATCAAA
Q: Does B2 bind (FOXP2 FHD [3])?
A: binds

B3: FOXP2 forkhead domain (FHD) (domain or fragment, UniProt O15409 504-594, looked up)
chain: RPPFTYATLIRQAIMESSDRQLTLNEIYSWFTRTFAYFRRNAATWKNAVRHNLSLHKCFVRVENVKGAVWTVDEVEYQKRRSQKITGSPTL
notes: also called FOXP2 FHD; forkhead box P2 forkhead domain; source: T7 cells (Genscript), pET-11A plasmid, purified (IMAC on nickel; His-tag removed with thrombin, benzamidine and HiTrap columns); not shown: His6, N-terminal, cleaved
Q: Which Kd [4] does the source give for B3 here?
A: ~67 µM

Q: What about the Kd [5] of the same binder?
A: ~73 µM

Q: What about the Kd [6] of the same binder?
A: 58 ± 6 µM

Q: And the Kd [7]?
A: ~28 µM
